How the values were obtained:
[1] = biological target: monkey 4-1BB-his protein (monkey); assay: ELISA, coated monkey 4-1BB-his; Ab 0.016 ug/ml
[2] = biological target: monkey 4-1BB-his protein (monkey); assay: ELISA, coated monkey 4-1BB-his; Ab 0.0006 ug/ml
[3] = biological target: monkey 4-1BB-his protein (monkey); assay: ELISA, coated monkey 4-1BB-his; Ab 2 ug/ml
[4] = biological target: monkey 4-1BB-his protein (monkey); assay: ELISA, coated monkey 4-1BB-his; Ab 10 ug/ml
GITR = assay: ELISA, coated GITR; Ab concentration not given
[5] = biological target: monkey 4-1BB-his protein (monkey); assay: ELISA, coated monkey 4-1BB-his; Ab 0.4 ug/ml
[6] = biological target: hFc-tagged human 4-1BB extracellular domain protein (4-1BB-hFc) (human) (UniProt Q07011); assay: ELISA, coated 4-1BB; Ab concentration not given
[7] = biological target: monkey 4-1BB-his protein (monkey); assay: ELISA, coated monkey 4-1BB-his; Ab 0.0032 ug/ml
OX40 = assay: ELISA, coated OX40; Ab concentration not given
[8] = biological target: monkey 4-1BB-his protein (monkey); assay: ELISA, coated monkey 4-1BB-his; Ab 0.08 ug/ml
[9] = biological target: monkey 4-1BB-his protein (monkey); assay: ELISA, coated monkey 4-1BB-his; Ab 0.0001 ug/ml

Chain of hFc-tagged human 4-1BB extracellular domain protein (4-1BB-hFc) (human) (Q07011 24-186 limits assumed): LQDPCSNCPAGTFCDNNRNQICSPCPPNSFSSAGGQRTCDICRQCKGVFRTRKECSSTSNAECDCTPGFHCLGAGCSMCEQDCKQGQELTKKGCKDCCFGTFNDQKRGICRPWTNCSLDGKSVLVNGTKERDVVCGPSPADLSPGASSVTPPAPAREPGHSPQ
Chain of GITR (Q9Y5U5 26-162): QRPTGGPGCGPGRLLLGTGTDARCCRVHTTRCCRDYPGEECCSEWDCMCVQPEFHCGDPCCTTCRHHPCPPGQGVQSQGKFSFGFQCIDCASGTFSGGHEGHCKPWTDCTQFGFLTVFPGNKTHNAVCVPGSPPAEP
Chain of OX40 (P43489 29-214): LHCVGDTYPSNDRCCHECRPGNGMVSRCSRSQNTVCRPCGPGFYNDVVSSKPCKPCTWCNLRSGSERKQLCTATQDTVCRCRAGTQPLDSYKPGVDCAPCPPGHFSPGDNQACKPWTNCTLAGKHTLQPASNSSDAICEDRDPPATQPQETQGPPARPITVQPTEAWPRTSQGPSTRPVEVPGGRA

IgG control (human IgG) (antibody)
OD450 nm [1]: 0.07 OD450 nm
OD450 nm [2]: 0.07 OD450 nm
OD450 nm [3]: 0.07 OD450 nm
OD450 nm [4]: 0.07 OD450 nm
OD450 nm (GITR): 0.24 OD450 nm
OD450 nm [5]: 0.07 OD450 nm
OD450 nm [6]: 0.36 OD450 nm
OD450 nm [7]: 0.07 OD450 nm
OD450 nm (OX40): 0.32 OD450 nm
OD450 nm [8]: 0.07 OD450 nm
OD450 nm [9]: 0.07 OD450 nm
